Measurements from US20170253873A1.

Molecular target: phosphorylated Smad3 (pSmad3) (UniProt Q8BUN5)
Experiment: cell-based or functional assay

phosphorylated Smad3 (pSmad3), sequence (Q8BUN5 2-425 limits assumed): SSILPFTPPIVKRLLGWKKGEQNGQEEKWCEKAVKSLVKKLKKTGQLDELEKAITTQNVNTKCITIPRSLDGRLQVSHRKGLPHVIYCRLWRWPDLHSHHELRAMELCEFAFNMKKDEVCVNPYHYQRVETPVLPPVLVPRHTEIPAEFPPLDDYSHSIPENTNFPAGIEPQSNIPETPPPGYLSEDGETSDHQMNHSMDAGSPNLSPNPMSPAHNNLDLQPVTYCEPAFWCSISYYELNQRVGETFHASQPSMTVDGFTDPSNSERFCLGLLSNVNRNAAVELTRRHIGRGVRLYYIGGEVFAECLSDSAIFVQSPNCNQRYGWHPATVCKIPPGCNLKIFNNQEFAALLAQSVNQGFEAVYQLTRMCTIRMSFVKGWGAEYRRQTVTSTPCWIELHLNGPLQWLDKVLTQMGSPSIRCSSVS

TAT-SH3 (TAT-SNX9(SH3) fusion polypeptide containing the full length SH3 domain, amino acids 1 to 62) (from UniProt Q9Y5X1 1-62) (designed binder)
decrease in Smad3-dependent luciferase activity: 70%
